B1: F1*; a variant is named by its letters at N, in order (parent)
chain: GAGACCGCAACTGAAAAGTTGTTATCNNNNNNNNAANNNNNTTNGNNGGGTTGAAGTTCTGCACGTAGAAGCAAAAGGC

Variants of: B1
Test: fraction ligated after 30 min (ligated reads / total reads); higher = more ligase activity
Conditions: with F1*sub RNA substrate (template-directed ligation), 42 °C
Method: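 Chip-synthesised pool of F1* ligase ribozyme variants (all single and double substitutions, single, double and triple deletions in the catalytic core and GAA bulge, plus designed variants) was transcribed with T7 and reacted as a pool with excess substrate F1*sub for 30 min at 42 C in 50 mM EPPS pH 8.5, 25 mM MgCl2. Ligated and unligated bands were separated by PAGE, barcoded by RT and deep sequenced; fraction ligated = ligated reads / total reads per variant, relative activity = FL / FL of wild type (0.826). Sequences are the DNA template of the ribozyme.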

Row | Variant | fraction ligated
1 | GAGACCGCAACTGAAAAGTTGTTATCACTTTCGTAAGACACTTTGATGGGTTGAAGTTCTGCACGTAGAAGCAAAAGGC | 0.793
2 | GAGACCGCAACTGAAAAGTTGTTATCACTTTCGTAAGACACTTTGGTGGGTTGAAGTTCTGCACGTAGAAGCAAAAGGC | 0.0695
3 | GAGACCGCAACTGAAAAGTTGTTATCACTTTCGTAAGACACTTTGGAGGGTTGAAGTTCTGCACGTAGAAGCAAAAGGC | 0.0557
4 | GAGACCGCAACTGAAAAGTTGTTATCACTTGCGTAAGACACTTTGATGGGTTGAAGTTCTGCACGTAGAAGCAAAAGGC | 0.802
5 | GAGACCGCAACTGAAAAGTTGTTATCCTTGTCGTAAGCACTTTGGATGGGTTGAAGTTCTGCACGTAGAAGCAAAAGGC | 0.776
6 | GAGACCGCAACTGAAAAGTTGTTATCACTTGTGTAAGACACTTGGATGGGTTGAAGTTCTGCACGTAGAAGCAAAAGGC | 0.807
7 | GAGACCGCAACTGAAAAGTTGTTATCACTTGTCTAAGACACTTTGGAGGGTTGAAGTTCTGCACGTAGAAGCAAAAGGC | 0.169
8 | GAGACCGCAACTGAAAAGTTGTTATCACTTGTCTAAGACACTTTGGTGGGTTGAAGTTCTGCACGTAGAAGCAAAAGGC | 0.285
9 | GAGACCGCAACTGAAAAGTTGTTATCATTGTCGTAAGACACTTGGATGGGTTGAAGTTCTGCACGTAGAAGCAAAAGGC | 0.806
10 | GAGACCGCAACTGAAAAGTTGTTATCACTTGTGTAAGACACTTTGATGGGTTGAAGTTCTGCACGTAGAAGCAAAAGGC | 0.797
11 | GAGACCGCAACTGAAAAGTTGTTATCACTTGTCTAAACACTTTGGATGGGTTGAAGTTCTGCACGTAGAAGCAAAAGGC | 0.817
12 | GAGACCGCAACTGAAAAGTTGTTATCACTTTCGTAAACACTTTGGATGGGTTGAAGTTCTGCACGTAGAAGCAAAAGGC | 0.811
13 | GAGACCGCAACTGAAAAGTTGTTATCCTTGTCGTAAGACACTTTGGAGGGTTGAAGTTCTGCACGTAGAAGCAAAAGGC | 0.00758
14 | GAGACCGCAACTGAAAAGTTGTTATCCTTGTCGTAAGACACTTTGGTGGGTTGAAGTTCTGCACGTAGAAGCAAAAGGC | 0.346
15 | GAGACCGCAACTGAAAAGTTGTTATCACTTGCGTAAGACACTTTGGAGGGTTGAAGTTCTGCACGTAGAAGCAAAAGGC | 0.128
16 | GAGACCGCAACTGAAAAGTTGTTATCACTTGCGTAAGACACTTTGGTGGGTTGAAGTTCTGCACGTAGAAGCAAAAGGC | 0.143
17 | GAGACCGCAACTGAAAAGTTGTTATCACTTGCGTAAACACTTTGGATGGGTTGAAGTTCTGCACGTAGAAGCAAAAGGC | 0.837

Row | Variant | fraction ligated
18 | GAGACCGCAACTGAAAAGTTGTTATCACTTGTCTAAGAACTTTGGATGGGTTGAAGTTCTGCACGTAGAAGCAAAAGGC | 0.787
19 | GAGACCGCAACTGAAAAGTTGTTATCCTTGTCGTAAGACATTTGGATGGGTTGAAGTTCTGCACGTAGAAGCAAAAGGC | 0.794
20 | GAGACCGCAACTGAAAAGTTGTTATCCTTGTCGTAAACACTTTGGATGGGTTGAAGTTCTGCACGTAGAAGCAAAAGGC | 0.772
21 | GAGACCGCAACTGAAAAGTTGTTATCACTGTCGTAAGACACTTTGATGGGTTGAAGTTCTGCACGTAGAAGCAAAAGGC | 0.79
22 | GAGACCGCAACTGAAAAGTTGTTATCACTTGTGTAAGCACTTTGGATGGGTTGAAGTTCTGCACGTAGAAGCAAAAGGC | 0.875
23 | GAGACCGCAACTGAAAAGTTGTTATCACTTGTCTAAGACCTTTGGATGGGTTGAAGTTCTGCACGTAGAAGCAAAAGGC | 0.783
24 | GAGACCGCAACTGAAAAGTTGTTATCACTGTCGTAAGACACTTTGGAGGGTTGAAGTTCTGCACGTAGAAGCAAAAGGC | 0.13
25 | GAGACCGCAACTGAAAAGTTGTTATCACTGTCGTAAGACACTTTGGTGGGTTGAAGTTCTGCACGTAGAAGCAAAAGGC | 0.694
26 | GAGACCGCAACTGAAAAGTTGTTATCCTTGTCGTAAGACCTTTGGATGGGTTGAAGTTCTGCACGTAGAAGCAAAAGGC | 0.786
27 | GAGACCGCAACTGAAAAGTTGTTATCACTTGTCGAAGACACTTGGATGGGTTGAAGTTCTGCACGTAGAAGCAAAAGGC | 0.775
28 | GAGACCGCAACTGAAAAGTTGTTATCACTTGTGTAAGACATTTGGATGGGTTGAAGTTCTGCACGTAGAAGCAAAAGGC | 0.841
29 | GAGACCGCAACTGAAAAGTTGTTATCATTGTCGTAAGACCTTTGGATGGGTTGAAGTTCTGCACGTAGAAGCAAAAGGC | 0.79
30 | GAGACCGCAACTGAAAAGTTGTTATCACTTGTCGAAGACACTTTGGTGGGTTGAAGTTCTGCACGTAGAAGCAAAAGGC | 0.236
31 | GAGACCGCAACTGAAAAGTTGTTATCACTTGTCGAAGACACTTTGGAGGGTTGAAGTTCTGCACGTAGAAGCAAAAGGC | 0.15
32 | GAGACCGCAACTGAAAAGTTGTTATCACTTTCGTAAGACCTTTGGATGGGTTGAAGTTCTGCACGTAGAAGCAAAAGGC | 0.773
33 | GAGACCGCAACTGAAAAGTTGTTATCATTGTCGTAAACACTTTGGATGGGTTGAAGTTCTGCACGTAGAAGCAAAAGGC | 0.799
34 | GAGACCGCAACTGAAAAGTTGTTATCACTTGTGTAAGAACTTTGGATGGGTTGAAGTTCTGCACGTAGAAGCAAAAGGC | 0.867

— the supplement of paper PMC6755084
